Data taken from publication PMC3502260, “Plasmodium serine hydroxymethyltransferase as a potential anti-malarial target: inhibition studies using improved methods for enzyme production and assay” (Malaria Journal, 2012).

What was measured:
purified protein [1] = substrate: N[C@@H](CO)C(=O)O; assay: purified protein; format: biochemical, Plasmodium vivax; settings: apparent, 0.4 mM THF fixed, 25 °C, 50 mM HEPES pH 7, aerobic
purified protein [2] = substrate: Nc1nc2c(c(=O)[nH]1)N[C@@H](CNc1ccc(C(=O)N[C@@H](CCC(=O)O)C(=O)O)cc1)CN2; assay: purified protein; format: biochemical, Plasmodium vivax; settings: apparent, 2 mM L-serine fixed, 25 °C, 50 mM HEPES pH 7, aerobic

B1: PvSHMT (Plasmodium vivax Sal-1) (protein)
chain: MFNNEPLEQIDKELHDILADEEKRQRETINLIASENLTNGAVRECLGNRVSNKYSEGYPKKRYYGGNDFIDKIEELCQKRALEAFNVSDEEWGVNVQPLSGSAANVQALYALVGVKGKIMGMHLCSGGHLTHGFFDEKKKVSITSDMFESKLYKCNSQGYVDLDAVREMALSFKPKVIICGYTSYPRDIDYQQFRQICDEVNAYLFADISHISSFVACNILNNPFLHADVVTTTTHKILRGPRSALIFFNKKRNPGIEQKINSAVFPSFQGGPHNNKIAAVACQLKEVHSPAFKEYTQQVLLNSKALAKALISKQIDLVTNGTDNHLIVVDLRKFSITGSKLQETCNAINVSLNKNTIPSDVDCVSPSGVRIGTPAMTTRGAKEKDMEFIADVLARAIKITVDLQEQYGKKLVDFKKGLPGNAQLQQLKQEVVTWAGALPFP
notes: recombinant, expressed in E. coli BL21(DE3) as in an earlier report; dimer
Purified protein [1]
  Km: 190 ± 20 µM
  kcat: 1.26 ± 0.13 s⁻¹
Purified protein [2]
  Km: 90 ± 20 µM
  kcat: 1.26 ± 0.13 s⁻¹
